B1: Serine/threonine-protein kinase DCLK2 (Homo sapiens), Q8N568 (parent)
chain: MASTRSIELEHFEERDKRPRPGSRRGAPSSSGGSSSSGPKGNGLIPSPAHSAHCSFYRTRTLQALSSEKKAKKARFYRNGDRYFKGLVFAISSDRFRSFDALLIELTRSLSDNVNLPQGVRTIYTIDGSRKVTSLDELLEGESYVCASNEPFRKVDYTKNINPNWSVNIKGGTSRALAAASSVKSEVKESKDFIKPKLVTVIRSGVKPRKAVRILLNKKTAHSFEQVLTDITEAIKLDSGVVKRLCTLDGKQVTCLQDFFGDDDVFIACGPEKFRYAQDDFVLDHSECRVLKSSYSRSSAVKYSGSKSPGPSRRSKSPASVNGTPSSQLSTPKSTKSSSSSPTSPGSFRGLKQISAHGRSSSNVNGGPELDRCISPEGVNGNRCSESSTLLEKYKIGKVIGDGNFAVVKECIDRSTGKEFALKIIDKAKCCGKEHLIENEVSILRRVKHPNIIMLVEEMETATELFLVMELVKGGDLFDAITSSTKYTERDGSAMVYNLANALRYLHGLSIVHRDIKPENLLVCEYPDGTKSLKLGDFGLATVVEGPLYTVCGTPTYVAPEIIAETGYGLKVDIWAAGVITYILLCGFPPFRSENNLQEDLFDQILAGKLEFPAPYWDNITDSAKELISQMLQVNVEARCTAGQILSHPWVSDDASQENNMQAEVTGKLKQHFNNALPKQNSTTTGVSVIMNTALDKEGQIFCSKHCQDSGRPGMEPISPVPPSVEEIPVPGEAVPAPTPPESPTPHPPPAAPGGERAGTWRRHRD
partner: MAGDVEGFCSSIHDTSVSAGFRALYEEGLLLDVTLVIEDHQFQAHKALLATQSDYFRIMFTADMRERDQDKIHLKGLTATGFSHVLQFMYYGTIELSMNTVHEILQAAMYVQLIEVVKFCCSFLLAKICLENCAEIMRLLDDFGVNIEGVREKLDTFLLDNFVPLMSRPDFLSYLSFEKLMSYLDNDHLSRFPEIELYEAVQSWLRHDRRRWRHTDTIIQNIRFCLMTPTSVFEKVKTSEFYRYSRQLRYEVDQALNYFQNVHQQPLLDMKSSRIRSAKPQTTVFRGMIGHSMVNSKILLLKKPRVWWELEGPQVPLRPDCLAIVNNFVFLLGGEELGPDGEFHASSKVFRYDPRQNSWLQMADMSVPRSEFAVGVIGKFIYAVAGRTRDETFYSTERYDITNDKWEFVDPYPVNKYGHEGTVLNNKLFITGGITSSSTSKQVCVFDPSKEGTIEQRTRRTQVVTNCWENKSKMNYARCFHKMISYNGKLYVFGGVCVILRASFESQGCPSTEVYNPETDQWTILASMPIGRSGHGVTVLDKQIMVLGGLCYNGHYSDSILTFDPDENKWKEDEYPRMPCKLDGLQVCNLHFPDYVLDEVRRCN
B2: Serine/threonine-protein kinase DCLK1 (Homo sapiens), O15075 (parent)
chain: MSFGRDMELEHFDERDKAQRYSRGSRVNGLPSPTHSAHCSFYRTRTLQTLSSEKKAKKVRFYRNGDRYFKGIVYAISPDRFRSFEALLADLTRTLSDNVNLPQGVRTIYTIDGLKKISSLDQLVEGESYVCGSIEPFKKLEYTKNVNPNWSVNVKTTSASRAVSSLATAKGSPSEVRENKDFIRPKLVTIIRSGVKPRKAVRILLNKKTAHSFEQVLTDITDAIKLDSGVVKRLYTLDGKQVMCLQDFFGDDDIFIACGPEKFRYQDDFLLDESECRVVKSTSYTKIASSSRRSTTKSPGPSRRSKSPASTSSVNGTPGSQLSTPRSGKSPSPSPTSPGSLRKQRSSQHGGSSTSLASTKVCSSMDENDGPGEEVSEEGFQIPATITERYKVGRTIGDGNFAVVKECVERSTAREYALKIIKKSKCRGKEHMIQNEVSILRRVKHPNIVLLIEEMDVPTELYLVMELVKGGDLFDAITSTNKYTERDASGMLYNLASAIKYLHSLNIVHRDIKPENLLVYEHQDGSKSLKLGDFGLATIVDGPLYTVCGTPTYVAPEIIAETGYGLKVDIWAAGVITYILLCGFPPFRGSGDDQEVLFDQILMGQVDFPSPYWDNVSDSAKELITMMLLVDVDQRFSAVQVLEHPWVNDDGLPENEHQLSVAGKIKKHFNTGPKPNSTAAGVSVIATTALDKERQVFRRRRNQDVRSRYKAQPAPPELNSESEDYSPSSSETVRSPNSPF
partner: B1 partner
B3: Neuronal migration protein doublecortin (Mus musculus), O88809 (parent)
chain: MELDFGHFDERDKASRNMRGSRMNGLPSPTHSAHCSFYRTRTLQALSNEKKAKKVRFYRNGDRYFKGIVYAVSSDRFRSFDALLADLTRSLSDNINLPQGVRYIYTIDGSRKIGSMDELEEGESYVCSSDNFFKKVEYTKNVNPNWSVNVKTSANMKAPQSLASSNSAQARENKDFVRPKLVTIIRSGVKPRKAVRVLLNKKTAHSFEQVLTDITEAIKLETGVVKKLYTLDGKQVTCLHDFFGDDDVFIACGPEKFRYAQDDFSLDENECRVMKGNPSAAAGPKASPTPQKTSAKSPGPMRRSKSPADSGNDQDANGTSSSQLSTPKSKQSPISTPTSPGSLRKHKVDLYLPLSLDDSDSLGDSM
partner: B1 partner

Variants of: B1
Conditions: with klh15_human KLHL15, Q96M94

effect of a mutation on the interaction	Variant
decreasing interaction	Y276L

Variants of: B2
Conditions: with klh15_human KLHL15, Q96M94

effect of a mutation on the interaction	Variant
decreasing interaction	Y265L

Variants of: B3
Conditions: with klh15_human KLHL15, Q96M94

effect of a mutation on the interaction	Variant
decreasing interaction	Y259L

— IntAct's records for PubMed 33199366
